The source of these data is publication PMC12208539, “PPIL2 is a target of the JAK2/STAT5 pathway and promotes myeloproliferation via degradation of p53” (The Journal of Clinical Investigation, 2025).

The assay has as its target T1, recombinant His-p53 (UniProt P04637 1-393).
T1 construct: p53 from pET15b-p53 (Addgene plasmid 24859); also called pET15b-p53; source: recombinant, pET15b-p53 (Addgene)
Put plainly: pull-down; GST pulldown: 100 μg recombinant GST-PPIL2 protein with 100 μg recombinant His-p53 and MagneGST glutathione beads overnight at 4°C; washes with TENT buffer (1% Triton X-100, 140 mM NaCl, 2 mM EDTA, 20 mM Tris pH 8.0). As to conditions: both partners purified.

T1 sequence (P04637 whole entry): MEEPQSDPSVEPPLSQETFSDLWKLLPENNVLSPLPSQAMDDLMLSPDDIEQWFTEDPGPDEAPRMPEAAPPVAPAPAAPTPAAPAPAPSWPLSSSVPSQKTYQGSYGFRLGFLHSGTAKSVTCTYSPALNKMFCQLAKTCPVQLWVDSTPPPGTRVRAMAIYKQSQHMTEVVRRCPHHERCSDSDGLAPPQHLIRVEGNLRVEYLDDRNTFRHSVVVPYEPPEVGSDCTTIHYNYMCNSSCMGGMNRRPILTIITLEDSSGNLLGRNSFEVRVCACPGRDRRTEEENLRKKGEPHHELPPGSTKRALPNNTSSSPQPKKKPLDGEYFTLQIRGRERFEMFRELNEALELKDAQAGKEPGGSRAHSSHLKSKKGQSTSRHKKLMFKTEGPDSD

B1: recombinant GST-PPIL2-U-box (domain or fragment, UniProt Q13356 1-190, looked up)
chain: MGKRQHQKDKMYITCAEYTHFYGGKKPDLPQTNFRRLPFDHCSLSLQPFVYPVCTPDGIVFDLLNIVPWLKKYGTNPSNGEKLDGRSLIKLNFSKNSEGKYHCPVLFTVFTNNTHIVAVRTTGNVYAYEAVEQLNIKAKNFRDLLTDEPFSRQDIITLQDPTNLDKFNVSNFYHVKNNMKIIDPDEEKAK
notes: peptidylprolyl isomerase-like 2 (PPIL2), U-box domain construct, residues 1-190; the tie of 1-190 to the U-box goes by the order of the list; also called GST-PPIL2 (1-190); U-box domain of PPIL2; source: recombinant, prokaryotic expression vector pGEX6p-3
Turning to B1, the binding result is on record as “binds”.
